Where two headings read alike, the source gives them in different places.
T1: CTLA4 on the cells of the reporter gene bioassay (human, UniProt P16410 36-223)
T1 sequence (looked up): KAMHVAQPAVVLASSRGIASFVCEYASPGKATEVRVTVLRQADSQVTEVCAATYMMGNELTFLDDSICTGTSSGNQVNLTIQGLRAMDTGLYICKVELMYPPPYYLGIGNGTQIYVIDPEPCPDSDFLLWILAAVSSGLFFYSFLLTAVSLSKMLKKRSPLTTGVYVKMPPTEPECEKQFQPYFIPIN

B1: Tremelimumab, stressed starting material (low pH 2.5-3.0, 45° C., shaking) (antibody, human IgG2, kappa, V domains shown)
VH: QVQLVESGGGVVQPGRSLRLSCAASGFTFSSYGMHWVRQAPGKGLEWVAVIWYDGSNKYYADSVKGRFTISRDNSKNTLYLQMNSLRAEDTAVYYCARDPRGATLYYYYYGMDVWGQGTTVTVSS
VL: DIQMTQSPSSLSASVGDRVTITCRASQSINSYLDWYQQKPGKAPKLLIYAASSLQSGVPSRFSGSGSGTDFTLTISSLQPEDFATYYCQQYYSTPFTFGPGTKVEIKR
B2: Heat-stressed Tremelimumab (40° C.), month 0 (oxidation study) (antibody, human IgG2, kappa, V domains shown)
VH: QVQLVESGGGVVQPGRSLRLSCAASGFTFSSYGMHWVRQAPGKGLEWVAVIWYDGSNKYYADSVKGRFTISRDNSKNTLYLQMNSLRAEDTAVYYCARDPRGATLYYYYYGMDVWGQGTTVTVSS
VL: DIQMTQSPSSLSASVGDRVTITCRASQSINSYLDWYQQKPGKAPKLLIYAASSLQSGVPSRFSGSGSGTDFTLTISSLQPEDFATYYCQQYYSTPFTFGPGTKVEIKR
modifications: oxidation by peptide mapping: Trp-52 1.8%, Met-256 1.3%, Met-362 1.6%, Met-401 1.6%, Met-432 1.2%
B3: Heat-stressed Tremelimumab (40° C.), month 3 (oxidation study) (antibody, human IgG2, kappa, V domains shown)
VH: QVQLVESGGGVVQPGRSLRLSCAASGFTFSSYGMHWVRQAPGKGLEWVAVIWYDGSNKYYADSVKGRFTISRDNSKNTLYLQMNSLRAEDTAVYYCARDPRGATLYYYYYGMDVWGQGTTVTVSS
VL: DIQMTQSPSSLSASVGDRVTITCRASQSINSYLDWYQQKPGKAPKLLIYAASSLQSGVPSRFSGSGSGTDFTLTISSLQPEDFATYYCQQYYSTPFTFGPGTKVEIKR
modifications: oxidation by peptide mapping: Trp-52 4.5%, Met-256 2.5%, Met-362 3.1%, Met-401 4.3%, Met-432 2.7%
B4: Heat-stressed Tremelimumab (40° C.), month 2 (oxidation study) (antibody, human IgG2, kappa, V domains shown)
VH: QVQLVESGGGVVQPGRSLRLSCAASGFTFSSYGMHWVRQAPGKGLEWVAVIWYDGSNKYYADSVKGRFTISRDNSKNTLYLQMNSLRAEDTAVYYCARDPRGATLYYYYYGMDVWGQGTTVTVSS
VL: DIQMTQSPSSLSASVGDRVTITCRASQSINSYLDWYQQKPGKAPKLLIYAASSLQSGVPSRFSGSGSGTDFTLTISSLQPEDFATYYCQQYYSTPFTFGPGTKVEIKR
modifications: oxidation by peptide mapping: Trp-52 2.5%, Met-256 2.0%, Met-362 2.6%, Met-401 3.8%, Met-432 2.2%
B5: Heat-stressed Tremelimumab (40° C.), month 1 (oxidation study) (antibody, human IgG2, kappa, V domains shown)
VH: QVQLVESGGGVVQPGRSLRLSCAASGFTFSSYGMHWVRQAPGKGLEWVAVIWYDGSNKYYADSVKGRFTISRDNSKNTLYLQMNSLRAEDTAVYYCARDPRGATLYYYYYGMDVWGQGTTVTVSS
VL: DIQMTQSPSSLSASVGDRVTITCRASQSINSYLDWYQQKPGKAPKLLIYAASSLQSGVPSRFSGSGSGTDFTLTISSLQPEDFATYYCQQYYSTPFTFGPGTKVEIKR
modifications: oxidation by peptide mapping: Trp-52 1.6%, Met-256 1.4%, Met-362 2.1%, Met-401 2.4%, Met-432 1.5%
B6: Tremelimumab incubated with 100 ppm H2O2 for 3 days (antibody, human IgG2, kappa)
heavy: QVQLVESGGGVVQPGRSLRLSCAASGFTFSSYGMHWVRQAPGKGLEWVAVIWYDGSNKYYADSVKGRFTISRDNSKNTLYLQMNSLRAEDTAVYYCARDPRGATLYYYYYGMDVWGQGTTVTVSSASTKGPSVFPLAPCSRSTSESTAALGCLVKDYFPEPVTVSWNSGALTSGVHTFPAVLQSSGLYSLSSVVTVPSSNFGTQTYTCNVDHKPSNTKVDKTVERKCCVECPPCPAPPVAGPSVFLFPPKPKDTLMISRTPEVTCVVVDVSHEDPEVQFNWYVDGVEVHNAKTKPREEQFNSTFRVVSVLTVVHQDWLNGKEYKCKVSNKGLPAPIEKTISKTKGQPREPQVYTLPPSREEMTKNQVSLTCLVKGFYPSDIAVEWESNGQPENNYKTTPPMLDSDGSFFLYSKLTVDKSRWQQGNVFSCSVMHEALHNHYTQKSLSLSPGK
light: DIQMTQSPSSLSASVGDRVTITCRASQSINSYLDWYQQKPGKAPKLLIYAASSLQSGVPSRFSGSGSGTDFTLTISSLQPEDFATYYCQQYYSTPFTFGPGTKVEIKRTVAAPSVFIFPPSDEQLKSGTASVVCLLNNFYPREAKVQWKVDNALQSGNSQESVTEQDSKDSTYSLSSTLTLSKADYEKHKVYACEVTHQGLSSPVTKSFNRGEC
modifications: oxidation by peptide mapping: Met-256 68.5%, Met-362 26.5%, Met-401 55.2%, Met-432 42.1%

Columns and labels:
[1] = biological target: T1, CTLA4 on the cells of the reporter gene …; test: cell-based or functional assay
[2] = biological target: T1, CTLA4 on the cells of the reporter gene …; test: cell-based or functional assay; remark: listed apart in the source
[3] = biological target: T1, CTLA4 on the cells of the reporter gene …; test: cell-based or functional assay; remark: listed apart in the source
[4] = biological target: T2, recombinant FcRn (UniProt P55899 24-297; P61769 21-119, limits assumed); test: SPR, recombinant FcRn immobilized on the sensor; relative to Reference Standard
T2 construct: also called Neonatal Fc Receptor
T2 sequence (P55899 24-297 limits assumed, form in doubt, chain 1 of 2): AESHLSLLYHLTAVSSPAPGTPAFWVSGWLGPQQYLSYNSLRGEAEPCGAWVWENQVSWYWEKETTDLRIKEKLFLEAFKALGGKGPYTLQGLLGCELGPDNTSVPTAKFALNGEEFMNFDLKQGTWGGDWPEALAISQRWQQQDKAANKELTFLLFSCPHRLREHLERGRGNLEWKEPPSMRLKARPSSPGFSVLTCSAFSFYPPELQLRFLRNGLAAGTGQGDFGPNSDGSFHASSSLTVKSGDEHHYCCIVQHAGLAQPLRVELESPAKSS
T2 sequence (P61769 21-119 limits assumed, form in doubt, chain 2 of 2): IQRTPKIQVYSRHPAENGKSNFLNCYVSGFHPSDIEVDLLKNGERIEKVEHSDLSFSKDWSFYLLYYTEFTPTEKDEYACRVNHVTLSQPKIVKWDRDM
From the text: A surface plasmon resonance binding assay was used to measure FcRn binding. This method is based on the ability of the test sample to bind to recombinant FcRn that has been immobilized on an SPR sensor surface. A reference flow cell was created using the same standard amine coupling procedure without the addition of FcRn.

| Binder | Relative Potency (%) [2] [%] | further results |
| --- | --- | --- |
| B1 | – | Relative Potency (%) [1]: 91% |
| B2 | 100 | – |
| B3 | 98 | – |
| B4 | 101 | – |
| B5 | 112 | – |
| B6 | – | Relative Potency (%) [3]: 83%; Relative FcRn Binding (%) [4]: 28% |

Source: patent US20250340643A1 (AstraZeneca / MedImmune, published 2025)
